The results in this text go back to US20250163167A1 (SYNTHEKINE, published 2025).

First the molecules themselves.
T1: hIL10Rb ECD antigen (human, UniProt Q08334 20-220)
T1 construct: Antigen of biopanning and PE-ELISA; also called extracellular domain of hIL10Rb
T1 sequence: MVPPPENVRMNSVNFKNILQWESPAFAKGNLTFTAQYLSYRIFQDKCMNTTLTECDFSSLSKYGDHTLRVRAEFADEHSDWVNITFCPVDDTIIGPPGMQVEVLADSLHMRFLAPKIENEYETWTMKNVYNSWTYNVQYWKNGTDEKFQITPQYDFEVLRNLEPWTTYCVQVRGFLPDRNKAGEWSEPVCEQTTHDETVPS

T2: human IL-10 receptor (hIL-10R alpha and beta chains) on HEK-Blue IL-10 reporter cells (human, UniProt Q13651 22-578; Q08334 20-325)
T2 sequence 1: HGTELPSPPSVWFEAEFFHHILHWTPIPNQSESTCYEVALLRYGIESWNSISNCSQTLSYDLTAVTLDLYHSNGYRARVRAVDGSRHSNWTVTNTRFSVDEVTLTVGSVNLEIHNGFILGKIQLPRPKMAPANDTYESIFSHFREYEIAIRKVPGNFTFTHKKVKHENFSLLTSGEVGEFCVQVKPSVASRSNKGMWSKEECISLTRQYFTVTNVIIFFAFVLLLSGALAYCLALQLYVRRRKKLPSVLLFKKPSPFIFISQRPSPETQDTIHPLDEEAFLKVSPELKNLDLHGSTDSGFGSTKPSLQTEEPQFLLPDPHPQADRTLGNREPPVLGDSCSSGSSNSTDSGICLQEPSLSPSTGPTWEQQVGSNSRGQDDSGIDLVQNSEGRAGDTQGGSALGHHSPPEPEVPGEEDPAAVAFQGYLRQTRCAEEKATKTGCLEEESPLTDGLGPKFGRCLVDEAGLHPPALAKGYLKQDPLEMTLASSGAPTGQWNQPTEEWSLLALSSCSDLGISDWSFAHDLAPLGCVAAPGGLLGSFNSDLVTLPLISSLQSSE
T2 sequence 2: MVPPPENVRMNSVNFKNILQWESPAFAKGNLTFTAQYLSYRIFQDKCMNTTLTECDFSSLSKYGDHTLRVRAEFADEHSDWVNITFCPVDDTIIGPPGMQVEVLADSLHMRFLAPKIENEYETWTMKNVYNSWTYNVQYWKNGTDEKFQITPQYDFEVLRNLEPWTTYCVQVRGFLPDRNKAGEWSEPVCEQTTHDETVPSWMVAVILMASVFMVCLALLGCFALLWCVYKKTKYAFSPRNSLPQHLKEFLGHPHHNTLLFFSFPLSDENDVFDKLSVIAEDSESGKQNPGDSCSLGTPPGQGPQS

B1: hIL10Rb VHH-2 (VHH)
VHH: QVQLQESGGGSVQAGGSLRLSCAASGYTYSSYCMGWFRQAPGKEREGVAAIDSDGSTRYADSVKGRFTISKDNAKNTLYLQMNSLKPEDTAMYYCAAEPYCSGGYKRTMVAEFGYWGQGTQVTVSS
notes: Phage clone, periplasmic extract
B2: hIL10Rb VHH-14 (VHH)
VHH: QVQLQESGGGSVQAGGSLRLSCAASGYTYSSGCMGWFRQAPGKEREGVATINSDGSTNYADSVKGRFTISKDNAKNTLYLQMNSLKPEDTGMYYCAAEPYCSGGYPRWSVAEFGYWGQGTQVTVSS
notes: as for B1
B3: hIL10Rb VHH-8 (VHH)
VHH: QVQLQESGGGSVQAGGSLRLSCAASGYSYSSYCMGWFRQAPGKEREGVAAIASDGSTSYADSVKGRFAISKDNAKNTLYLQMASLKPEDTAMYYCAAEPWCTGGYSRLTPAEYGYWGQGTQVTVSS
notes: as for B1
B4: hIL10Rb VHH-9 (VHH)
VHH: QVQLQESGGGLVQPGGSLRLSCAASGYTYSSGCMGWFRQAPGKEREGVATINSDGSTNYADSVKGRFTISKDNAKNTLYLQMNSLKPEDTAMYYCAAEPYCSGGYPRWSVAEFGYWGQGTQVTVSS
notes: as for B1
B5: hIL10Rb VHH-11 (VHH)
VHH: QVQLQESGGGSVQAGGSLRLSCAASGYTYSSYCMGWFRQAPGKGREGVAAIDSDGSTRYADSVKGRFTISKDNAKNTLYLQMNSLKPEDTAMYYCAAEPYCSGGYKRTMVAEFGYWGQGTQVTVSS
notes: as for B1
B6: hIL10Rb VHH-7 (VHH)
VHH: QVQLQESGGGSVQAGGSLRLSCAASGYTYSSGCMGWFRQAPGKEREGVATINSDGSTNYADSVKGRFTISKDNAKNTLYLQMNSLKPEDTAMYYCAAEPYCSGGYPRWSVAEFGYWGQGTQVTVSS
notes: as for B1
B7: hIL10Rb VHH-18 (VHH)
VHH: QVQLQESGGGSVQAGGSLRLSCAASGDTYSSYCMGWFRQAPGKEREGVAFIDSDGSTRYADSVEGRFTISKDNAKNTLYLQMNSLKPEDTAMYYCAAEPYCSGGYHRKEMAEFGYWGQGTQVTVSS
notes: as for B1
B8: hIL10Rb VHH-23 (VHH)
VHH: QVQLQESGGGSVQAGGSLRLSCAASGYTYSSYCMGWFRQAPGKEREGVAAIDSDGSTRYADSVKGRFTISKDNAKKILYLQMNSLKVEDTAMYYCAAEPYCSGGYKRTMVAEFGFWGQGTQVTVSS
notes: as for B1
B9: hIL10Rb VHH-5 (VHH)
VHH: QVQLQESGGGLVQPGGSLRLSCAASGYTYSSYCMGWFRQAPGKEREGVAHIDSDGSTTYADSVKGRFTISKDNAKNTLYLQMNSLKPEDTAMYYCAADPIPGPGYCDGGPNKYWGQGTQVTVSS
notes: as for B1
B10: hIL10Rb VHH-13 (VHH)
VHH: QVQLQESGGGSVQAGGSLRLSCAASGYTYSSYCMGWFRQAPGKEREGVAHIDSDGSTSYADSVKGRFTISKDNAKNTLYLQMNSLKPEDTAMYYCAADPIPGPGYCDGGPNNYWGQGTQVTVSS
notes: as for B1
B11: hIL10Rb VHH-22 (VHH)
VHH: QVQLQESGGGSVQAGGSLRLSCAASGYTDSRYCMGWFRKAPGKEREGVAHIDSDGSTSYADSVKGRFTISKDNAKNTLYLQMNSLKPEDTAMYYCAADPIPGPGYCDGGPNKYWGQGTQVTVSS
notes: as for B1
B12: hIL10Rb VHH-20 (VHH)
VHH: QVQLQESGGGSVQAGGSLRLSCAASGYTYSSYCMGWFRQAPGKEREGVAHIDSDGSTTYADSVKGRFAISKDNAKNTLYLQMNSLKPEDTAMYYCAADPIPGPGYCDGGPNKYWGQGTQVTVSS
notes: as for B1
B13: hIL10Rb VHH-24 (VHH)
VHH: QVQLQESGGGSVQAGGSLKLSCAASGYTYSSYCMGWFRQAPGKEREGVAHIDSDGSTTYADSVKGRFTISKDNAKNTLYLQMNSLKPEDTAMYYCAADPIPGPGYCDGGPNNYWGQGTQVTVSS
notes: as for B1
B14: hIL10Rb VHH-25 (VHH)
VHH: QVQLQESGGGSVQAGGSLRLSCAASGYTYSSYCMGWFRQAPGKEREGIAHIDSDGSTTYADSVKGRFTISKDNAKNTLYLQMNSLKPEDTAMYYCAADPIPGPGYCDGGPNNYWGQGTQVTVSS
notes: as for B1
B15: hIL10Rb VHH-10 (VHH)
VHH: QVQLQESGGGLVQPGGSLRLSCAASGYTYSSYCMGWFRQAPGKEREGVAHIDSDGSTTYADSVKGRFAISKDNAKNTLYLQMNSLKPEDTAMYYCAADPIPGPGYCDGGPNKYWGQGTQVTVSS
notes: as for B1
B16: hIL10Rb VHH-17 (VHH)
VHH: QVQLQESGGGSVQAGGSLRLSCTVSRYTASVNYMGWFRQAPGKEREGVATIFTGAGTTYYANSVKGRFTISRDNAKNTAYLQMNSLKPEDTAMYYCAVDFRGGLLYRPAYEYTYRGQGTQVTVSS
notes: as for B1
B17: IL10R binding molecule of SEQ ID NO: 303 (bispecific antibody)
chain: QVQLQESGGGSVQAGGSLRLSCAASGYSNCSYDMTWYRQAPGKEREFVSAIHSDGSTRYADSVKGRFFISQDNAKNTVYLQMNSLKPEDTAMYYCKTDPLHCRAHGGSWYSVRANYWGQGTQVTVSSGGGSQVQLQESGGGSVQAGGSLRLSCAASGYSYSSYCMGWFRQAPGKEREGVATIDSDGMTRYADSVKGRFTISKDNAKNTLYLQMNSLKPEDTAMYYCAAPLYDCDSGAVGRNPPYWGQGTQVTVSSASHHHHHH
B18: IL10R binding molecule of SEQ ID NO: 300 (bispecific antibody)
chain: QVQLQESGGGSVQAGGSLRLSCAASGYSNCSYDMTWYRQAPGKEREFVSAIHSDGSTRYADSVKGRFFISQDNAKNTVYLQMNSLKPEDTAMYYCKTDPLHCRAHGGSWYSVRANYWGQGTQVTVSSGGGSQVQLQESGGGSVQAGGSLRLSCAASRYTYNSYCMGWFRQAPGKEREGVATIDSDGMTRYADSVKGRFTISKDNAKNTLYLQMNSLKPEDTAMYYCAADADCTIAAMTTNPLGQGTQVTVSSASHHHHHH
B19: IL10R binding molecule of SEQ ID NO: 301 (bispecific antibody)
chain: QVQLQESGGGSVQAGGSLRLSCAASGYSNCSYDMTWYRQAPGKEREFVSAIHSDGSTRYADSVKGRFFISQDNAKNTVYLQMNSLKPEDTAMYYCKTDPLHCRAHGGSWYSVRANYWGQGTQVTVSSGGGSQVQLQESGGGSVQAGGSLRLSCTVSRYTASVNYMGWFRQAPGKEREGVATIFTGAGTTYYANSVKGRFTISRDNAKNTAYLQMNSLKPEDTAIYYCAVDFRGGLLYRPAYEYTYRGQGTQVTVSSASHHHHHH
B20: IL10R binding molecule of SEQ ID NO: 299 (bispecific antibody)
chain: QVQLQESGGGSVQAGGSLRLSCAASGYSNCSYDMTWYRQAPGKEREFVSAIHSDGSTRYADSVKGRFFISQDNAKNTVYLQMNSLKPEDTAMYYCKTDPLHCRAHGGSWYSVRANYWGQGTQVTVSSGGGSQVQLQESGGGSVQAGGSLRLSCAASGYTYSSYCMGWFRQAPGKEREGVAHIDSDGSTSYADSVKGRFTISKDNAKNTLYLQMNSLKPEDTAMYYCAADPIPGPGYCDGGPNKYWGQGTQVTVSSASHHHHHH
B21: IL10R binding molecule of SEQ ID NO: 302 (bispecific antibody)
chain: QVQLQESGGGSVQAGGSLRLSCAASGYSNCSYDMTWYRQAPGKEREFVSAIHSDGSTRYADSVKGRFFISQDNAKNTVYLQMNSLKPEDTAMYYCKTDPLHCRAHGGSWYSVRANYWGQGTQVTVSSGGGSQVQLQESGGGSVEAGGSLRLSCAASGYTHSSYCMGWFRQAPGKEREGVAAIDVDGSTTYADSVKGRFTISKDNAKNTLYLQMNSLKPEDTGMYYCAAEFADCSSNYFLPPGAVRYWGQGTQVTVSSASHHHHHH

One assay deals with T1, hIL10Rb ECD antigen. In words: periplasmic extract ELISA (PE-ELISA) of phage clones. In general terms: ELISA stands for enzyme-linked immunosorbent assay.
With B1, the binding result is given as “binds”. On to B2, for which the binding result is recorded as “binds”. For B3, the binding result is “binds”. Take B4: the binding result is “binds”. As to B5, the binding result was “binds”. As for B6, the binding result is “binds”.

On to B7, for which the binding result is given as “binds”. Same read-out and setting: the same measure for B8: “binds”. On to B9, for which the binding result is “binds”. Still for that read-out and setting: the same measure for B10: “binds”; for B11: “binds”.

With B12, the binding result was “binds”. Consider B13, for which the binding result is on record as “binds”. Consider B14, for which the binding result is “binds”. Same read-out and setting: the same measure for B15: “binds”; for B16: “binds”.

For the next assay, the target named is T2, human IL-10 receptor (hIL-10R alpha and …). In words: cell-based or functional assay.
With B17, the “Abs 630 (25 nM)” value was 1.92 Abs 630 and the “Abs 630 (100 nM)” value amounted to 1.93 Abs 630.

B18: the “Abs 630 (25 nM)” value was 2.08 Abs 630 and the “Abs 630 (100 nM)” value came out at 2.11 Abs 630. Take B19: the “Abs 630 (25 nM)” value came out at 2.05 Abs 630 and the “Abs 630 (100 nM)” value was 1.91 Abs 630. For the molecule B20, the “Abs 630 (25 nM)” value came to 0.47 Abs 630 and the “Abs 630 (100 nM)” value stood at 0.37 Abs 630.

Turning to B21, the “Abs 630 (25 nM)” value was determined as 1.98 Abs 630 and the “Abs 630 (100 nM)” value came to 2.09 Abs 630.
